The values that follow come from patent publication US10934351B2, “Cancer stem cell-specific molecule” (CHUGAI SEIYAKU KABUSHIKI KAISHA, priority 2011, dated 2021).

Test [1] relates to irinotecan-non-treated PLR59. Briefly: Flow cytometry (FCM) binding activity of commercially available antibodies to cell-surface antigens. Details: species or system human. To be noted: with antibody. On the procedure: (§1) The present inventors tested whether an anti-tumor effect can be expected with target therapy using a membrane protein expressed at a high level as the target in irinotecan-treated or non-treated PLR59 and PLR123. Commercially available antibodies shown in Table 12 were assessed by flow cytometry (FCM) for the binding activity to antigens expressed on the cell surface of irinotecan-treated or non-treated PLR59 or PLR123.

Test [2] has as its system irinotecan-non-treated PLR123. The test is described as above. Further details: species or system human. To be noted: with antibody. As to the method: as §1
Test [3] has as its system irinotecan-treated PLR123. Briefly: Internalization activity / anti-tumor effect with Mab-ZAP or Rat-ZAP (CellTiter-Glo). The test is classed as cell-based, human. As to conditions: PLR123, Irinotecan-treated (15 μM, 72 hours). On the procedure: (§2) Mab-ZAP and Rat-ZAP are anti-mouse IgG antibody and anti-rat IgG antibody, respectively, conjugated with saporin, a toxin that inhibits protein synthesis (Advanced Targeting Systems). To assess the activity of internalization into irinotecan-non-treated cells, PLR59 and PLR123 cells were seeded at a cell density of 30000 cells/80 μl/well to respective wells of a 96-well plate. Following day, each antibody solution was added at a final concentration of 0.01, 0.1, or 1 μg/ml to the respective wells. Then, Mab-ZAP or Rat-ZAP was added at a final concentration 1 μg/ml to the respective wells, and the plate was incubated at 37° C. for 72 hours in a CO2 incubator. To assess the activity of internalization into irinotecan-treated cells, PLR59 and PLR123 cells were seeded in a 96-well plate, and irinotecan was added at a final concentration of 15 μM to each well. The plate was incubated at 37° C. for 72 hours in a CO2 incubator. Various antibodies were assessed for the activity of internalization to cells cultured as described above in the presence or absence of irinotecan. For assay, the various antibodies were each assessed for the internalization activity into cells contained in each well where the medium was replaced with the same irinotecan-free medium as used for irinotecan-non-treated cells. Seventy-two hours after addition of antibodies and Mab-ZAP or Rat-ZAP, 10 μl of 3% SDS (Nacalai Tesque) was added to each well of the plate. The cells in the plate were lysed thoroughly by stirring the plate using a plate mixer. Then, 100 μl of CellTiter-Glo™ Luminescent Cell Viability Assay (Promega) was added to each well. The mixture in each well was assayed to determine its luminescent signal. […] In Table 14, symbols, −, +, ++, and +++, represent relative values for the internalization activity when a test antibody was assayed at a concentration of […]. […] Symbols, −, +, ++, and +++, indicate that the relative value is less than 5%, 5% or more and less than 15%, 15% or more and less than 25%, and 25% or more, respectively.
For orientation: In ATP-based viability assays light output follows the ATP content of the culture.

Test [4] relates to irinotecan-non-treated PLR59. The test is described as above. As to conditions: with Mab-ZAP or Rat-ZAP 1 μg/ml, 72 hours. The test is classed as cell-based, human. On the procedure: as §2
For test [5], the system named is irinotecan-non-treated PLR123. The description is as above. In kind it is cell-based, human. To be noted: with Mab-ZAP or Rat-ZAP 1 μg/ml, 72 hours. As to the method: as §2
For another test, the system named is irinotecan-treated PLR59. The test is described as above. The test is classed as cell-based, human. As to conditions: PLR59, Irinotecan-treated (15 μM, 72 hours). As to the method: as §2
The next test has as its system PLR59. Briefly: Differentiation-enhancing effect of BMP4 (CK20 expression, quantitative real-time PCR). The test is classed as cell-based, human. To be noted: BMP4 20 nM; irinotecan-non-treated and irinotecan-treated PLR59 (FIG. 73A). On the procedure:
(§3) BMP4 was assessed for the differentiation-enhancing effect on irinotecan-non-treated and irinotecan-treated PLR59 and PLR123. To assess the differentiation-enhancing effect on irinotecan-non-treated cells, PLR59 and PLR123 cells suspended in the media where BMP4 (R&D Systems; a final concentration of 20 nM) or a control buffer was added to culture media were seeded at a cell density of 5×10^5 cells/1.5 ml/well to each well of a 12-well plate. The cells were passaged while changing the culture media with the same type of medium 2, 4, and 7 days after seeding. To assess the differentiation-enhancing effect on irinotecan-treated cells, PLR59 or PLR123 was seeded at a cell density of 17×10^5 cells/5 ml/flask to a 12.5-ml culture flask. Following day, irinotecan was added at a final concentration of 15 μM. The flask was incubated at 37° C. for 72 hours in a CO2 incubator. Then, the medium in the flask was changed with a medium containing BMP4 or a control buffer. The medium was further changed with the same type of medium 2, 4, and 7 days after the initial medium change. […]
(§4) Quantitative real-time PCR was carried out using the cDNAs isolated as described above.
(Real-time PCR tracks product formation cycle by cycle.)

Another test has as its system PLR123. The test is described as above. The test is classed as cell-based, human. To be noted: BMP4 20 nM; irinotecan-non-treated and irinotecan-treated PLR123 (FIG. 73B). On the procedure:
as §3, §4

B1: EPCAM (protein)
chain: QEECVCENYKLAVNCFVNNNRQCQCTSVGAQNTVICSKLAAKCLVMKAEMNGSKLGRRAKPEGALQNNDGLYDPDCDESGLFKAKQCNGTSMCWCVNTAGVRRTDKDTEITCSERVRTYWIIIELKHKAREKPYDSKSLRTALQKEITTRYQLDPKFITSILYENNVITIDLVQNSSQKTQNDVDIADVAYYFEKDVKGESLFHSKKMDLTVNGEQLDLDPGQTLIYYVDEKAPEFSMQGLKAGVIAVIVVVVIAVVAGIVVLVISRKKRMAKYEKAEIKEMGEMHRELNA
For the molecule B1, the “binding activity by flow cytometry (FCM), Antibody +” value in test [1] came to 7563; in test [2], 7701. Further, the internalization activity level entry (in test [3]; in test [4]; in test [5]; with irinotecan-treated PLR59) was “+++ (25% or more)” throughout.

B2: BMP4: bone morphogenetic protein 4, polypeptide of SEQ ID NO: 4 (R&D Systems) (protein, listed as Homo sapiens)
chain: MIPGNRMLMVVLLCQVLLGGASHASLIPETGKKKVAEIQGHAGGRRSGQSHELLRDFEATLLQMFGLRRRPQPSKSAVIPDYMRDLYRLQSGEEEEEQIHSTGLEYPERPASRANTVRSFHHEEHLENIPGTSENSAFRFLFNLSSIPENEVISSAELRLFREQVDQGPDWERGFHRINIYEVMKPPAEVVPGHLITRLLDTRLVHHNVTRWETFDVSPAVLRWTREKQPNYGLAIEVTHLHQTRTHQGQHVRISRSLPQGSGNWAQLRPLLVTFGHDGRGHALTRRRRAKRSPKHHSQRARKKNKNCRRHSLYVDFSDVGWNDWIVAPPGYQAFYCHGDCPFPLADHLNSTNHAIVQTLVNSVNSSIPKACCVPTELSAISMLYLDEYDKVVLKNYQEMVVEGCGCR
With B2, the CK20 expression level result with PLR59 and in the test on PLR123 was “elevated CK20 levels” each time.
